We go through two proteins from paper PMC2914791, “Trichomonas Transmembrane Cyclases Result from Massive Gene Duplication and Concomitant Development of Pseudogenes” (PLoS Neglected Tropical Diseases, 2010).

Substrate in the data set: Nc1ncnc2c1ncn2[C@@H]1O[C@H](COP(=O)(O)OP(=O)(O)OP(=O)(O)O)[C@@H](O)[C@H]1O
The data set is described as follows: cAMP direct immunoassay, colorimetric. It is filed as biochemical, Trichomonas vaginalis. The settings on record: 4 µg GST-fusion protein; 0.2 mM GTP present in cAMP assay. (Changes in cAMP serve as a functional read-out for many G protein-coupled receptors.)

B1: group A cyclase (TVAG_456550), Trichomonas TMAC cyclase domain (Trichomonas vaginalis G3) (protein)
chain: TILFLDVVEFTPWCGSHDAQYVMRMLNIMFKEFDVITNAHKTMTKIKCIGDCYMAAGGIFDEVNQPPVHAKEVVDFGCKVIKKLLEIDEQENEKLRIRVGINTGGPIVAGVIGTEKPTFEILGPAINIAHEME
As to B1, the Km came out at 520 ± 10 µM.

B2: group B cyclase (TVAG_013980), Trichomonas TMAC cyclase domain (Trichomonas vaginalis G3) (protein)
chain: TIFFVDIVKFSNYAAALSPSEIMSNLSLVFSTFDKIVVKYPTILKIKLIGDVYMAAAGIFSDPQMNPSKPAEESVNCCLDIQKVMEQINVKLSAGLEVRIGVNTGGPLIGGVLGTDKPTFDIIGDPINVASRLQ
Take B2: the Km was determined as 710 ± 10 µM.

The Km is the substrate concentration at which the rate is half of its maximum.
